Measurements: PMC2698432

Assays:
[1] = molecular target: SarZ C13S (Staphylococcus aureus, UniProt Q5HDG9 1-148, C13S); test: EMSA
[2] = molecular target: T1, SarZ (Staphylococcus aureus, UniProt Q5HDG9 1-148); test: EMSA
T1 sequence: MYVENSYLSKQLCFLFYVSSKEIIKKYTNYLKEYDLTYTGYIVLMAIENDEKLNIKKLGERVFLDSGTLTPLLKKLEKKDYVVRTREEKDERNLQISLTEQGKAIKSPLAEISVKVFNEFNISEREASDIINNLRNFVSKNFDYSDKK

B1: ohr promoter fragment (ohr1/ohr2) (dsDNA)
DNA 1: TTTTCGAATGGGTAAAGCATAAATGTATTTTAAATTAGGAGGTTATAAGT
DNA 2: ACTTATAACCTCCTAATTTAAAATACATTTATGCTTTACCCATTCGAAAA
B1: binds [1]; binds [2].
